Reference: US20190359693A1

Experiments:
Experiment in all cases: cell-based or functional assay
[1] = biological target: hemagglutinin (HA) of influenza virus H4 A/WF/HK/MPA892/06 (influenza A virus)
[2] = biological target: hemagglutinin (HA) of influenza virus H1N1 A/Brisbane/59/07 (influenza A virus)
[3] = biological target: hemagglutinin (HA) of influenza virus H3N2 A/Fukui/45/04 (influenza A virus)
[4] = biological target: hemagglutinin (HA) of influenza virus H9N2 A/HK/466419/09 (influenza A virus)
[5] = biological target: hemagglutinin (HA) of influenza virus H3N2 A/Victoria/210/09 (influenza A virus)
[6] = biological target: hemagglutinin (HA) of influenza virus H5N1 A/Vietnam/1194/04 (influenza A virus)
[7] = biological target: hemagglutinin (HA) of influenza virus B/Brisbane/60/08 (Victoria) (influenza B virus)
[8] = biological target: hemagglutinin (HA) of influenza virus H3N2 A/Perth/16/09 (influenza A virus)
[9] = biological target: hemagglutinin (HA) of influenza virus H7N9 A/Anhui/1/13 (influenza A virus)
[10] = biological target: hemagglutinin (HA) of influenza virus H1N1 A/Mississippi/03/01 274H (influenza A virus)
[11] = biological target: hemagglutinin (HA) of influenza virus H1N1 A/WSN/33 (influenza A virus) (UniProt P03454)
[12] = biological target: hemagglutinin (HA) of influenza virus H4N6 A/Great Cormorant/MPB1683/06 (influenza A virus)
[13] = biological target: hemagglutinin (HA) of influenza virus H3N2 A/Hiroshima/52/05 (influenza A virus)
[14] = biological target: hemagglutinin (HA) of influenza virus H7N7 A/Netherlands/219/2003 (influenza A virus)
[15] = biological target: hemagglutinin (HA) of influenza virus H3N2 A/Panama/2007/99 (influenza A virus)
[16] = biological target: hemagglutinin (HA) of influenza virus H5N2 A/Eurasian Wigeon/MPF461/07 (influenza A virus)
[17] = biological target: hemagglutinin (HA) of influenza virus H3N2 A/Wisconsin/67/05 (influenza A virus)
[18] = biological target: hemagglutinin (HA) of influenza virus H8N2 A/Env/MPJ1258/09 (influenza A virus)
[19] = biological target: hemagglutinin (HA) of influenza virus B/Malaysia/2506/04 (Victoria) (influenza B virus)
[20] = biological target: hemagglutinin (HA) of influenza virus H10N7 A/Chick/Germany/N/49 (influenza A virus)
[21] = biological target: hemagglutinin (HA) of influenza virus H10N9 A/Northern Shoveler/MPE2531/08 (influenza A virus)
[22] = biological target: hemagglutinin (HA) of influenza virus H3N2 A/Johannesburg/33/94 (influenza A virus)
[23] = biological target: hemagglutinin (HA) of influenza virus H3N2 A/HK/1174/99 (influenza A virus)
[24] = biological target: hemagglutinin (HA) of influenza virus H1N1 A/Puerto Rico/8/34-MA (influenza A virus)
[25] = biological target: hemagglutinin (HA) of influenza virus H11N9 A/Northern Pintail/MPC2085/07 (influenza A virus)

B1: MD2407 (bispecific antibody)
chain: EVQLVESGGGLVQPGGSLRLSCAVSISIFDIYAMDWYRQAPGKQRDLVATSFRDGSTNYADSVKGRFTISRDNAKNTLYLQMNSLKPEDTAVYLCHVSLYRDPLGVAGGMGVYWGKGALVTVSSGGGGSGGGGSEVQLVESGGGLVQAGGSLKLSCAASGRTYAMGWFRQAPGKEREFVAHINALGTRTYYSDSVKGRFTISRDNAKNTEYLEMNNLKPEDTAVYYCTAQGQWRAAPVAVAAEYEFWGQGTQVTVSSGGGGSGGGGSEVQLVESGGGLVQPGGSLRLSCAATGFTLENKAIGWFRQTPGSEREGVLCISKSGSWTYYTDSMRGRFTISRDNAENTVYLQMDSLKPEDTAVYYCATTTAGGGLCWDGTTFSRLASSWGQGTQVTVSSGGGGSGGGGSEVQLVESGGGLVQPGGSLKLSCAASGFTFSTSWMYWLRQAPGKGLEWVSVINTDGGTYYADSVKDRFTISRDNAKDTLYLQMSSLKSEDTAVYYCAKDWGGPEPTRGQGTQVTVSS
average neutralization titer [1]: 6.8 nM | average neutralization titer [2]: 3.7 nM | average neutralization titer [3]: 19.2 nM | average neutralization titer [4]: 53.9 nM | average neutralization titer [5]: 6.5 nM | average neutralization titer [6]: 9.2 nM | average neutralization titer [7]: 4.1 nM | average neutralization titer [8]: 8.1 nM | average neutralization titer [9]: 64.6 nM | average neutralization titer [10]: 4.8 nM | average neutralization titer [11]: 4.8 nM | average neutralization titer [12]: 4.8 nM | average neutralization titer [13]: 10.5 nM | average neutralization titer [14]: 33 nM | average neutralization titer [15]: 14.9 nM | average neutralization titer [16]: 16.6 nM | average neutralization titer [17]: 19.1 nM | average neutralization titer [18]: 8.8 nM | average neutralization titer [19]: 9.2 nM | average neutralization titer [20]: 13.2 nM | average neutralization titer [21]: 35 nM | average neutralization titer [22]: 11.6 nM | average neutralization titer [23]: 76 nM | average neutralization titer [24]: 7.3 nM | average neutralization titer [25]: 34.5 nM
